According to paper PMC5700927, “Heme enables proper positioning of Drosha and DGCR8 on primary microRNAs” (Nature Communications, 2017):
Substitutions are numbered along the chain they refer to. In names and notes the source's numbering stands.

T1: Drosha (residues 353-1372) (human, UniProt Q9NRR4 353-1372)
T1 construct: Drosha (RNase III), human, residues 353-1372 (CED, two RIIID domains, dsRBD); also called the Drosha chain of MP^Heme, MP^Apo, MP^C352S, MP^ΔHBR and MP^CTT
T1 sequence (looked up): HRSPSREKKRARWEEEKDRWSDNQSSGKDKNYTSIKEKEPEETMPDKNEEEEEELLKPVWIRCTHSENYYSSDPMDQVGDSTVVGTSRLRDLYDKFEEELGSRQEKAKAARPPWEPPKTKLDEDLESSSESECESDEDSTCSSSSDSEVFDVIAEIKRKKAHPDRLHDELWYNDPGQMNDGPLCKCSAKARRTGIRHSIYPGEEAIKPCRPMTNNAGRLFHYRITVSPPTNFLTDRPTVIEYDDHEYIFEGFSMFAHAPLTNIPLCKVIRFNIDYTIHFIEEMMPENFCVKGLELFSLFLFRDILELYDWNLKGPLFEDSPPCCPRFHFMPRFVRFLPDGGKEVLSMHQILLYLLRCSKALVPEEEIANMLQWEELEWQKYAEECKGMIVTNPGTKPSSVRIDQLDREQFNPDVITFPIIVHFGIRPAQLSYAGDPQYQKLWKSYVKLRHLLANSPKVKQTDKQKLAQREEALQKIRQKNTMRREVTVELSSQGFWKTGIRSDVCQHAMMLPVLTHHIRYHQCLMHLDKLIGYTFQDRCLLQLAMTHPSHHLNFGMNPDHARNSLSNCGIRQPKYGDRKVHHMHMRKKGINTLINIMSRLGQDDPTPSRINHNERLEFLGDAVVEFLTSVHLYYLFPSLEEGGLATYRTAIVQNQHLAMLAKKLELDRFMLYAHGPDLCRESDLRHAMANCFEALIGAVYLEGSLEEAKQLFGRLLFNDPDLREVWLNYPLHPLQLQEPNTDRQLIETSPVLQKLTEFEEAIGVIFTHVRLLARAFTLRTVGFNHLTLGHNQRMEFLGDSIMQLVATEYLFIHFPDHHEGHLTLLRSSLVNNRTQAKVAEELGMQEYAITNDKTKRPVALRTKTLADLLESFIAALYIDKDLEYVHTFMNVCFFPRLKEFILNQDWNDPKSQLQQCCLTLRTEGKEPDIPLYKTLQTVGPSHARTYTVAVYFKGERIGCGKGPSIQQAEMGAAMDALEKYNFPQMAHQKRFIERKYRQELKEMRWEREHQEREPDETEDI

B1: DGCR8^ΔHBR (residues 489-751), co-expressed with Drosha (domain or fragment, human, UniProt Q8WYQ5 489-751, looked up)
chain: LITLSVQDAPTKKEFVINPNGKSEVCILHEYMQRVLKVRPVYNFFECENPSEPFGASVTIDGVTYGSGTASSKKLAKNKAARATLEILIPDFVKQTSEEKPKDSEELEYFNHISIEDSRVYELTSKAGLLSPYQILHECLKRNHGMGDTSIKFEVVPGKNQKSEYVMACGKHTVRGWCKNKRVGKQLASQKILQLLHPHVKNWGSLLRMYGRESSKMVKQETSDKSVIELQQYAKKNKPNLHILSKLQEEMKRLAEEREETRK
notes: DGCR8, human, residues 489-751 (tandem dsRBDs and C-terminal tail, no HBR); One copy per Drosha in MP^ΔHBR; also called DGCR8 lacking the HBR; the DGCR8 chain of MP^ΔHBR
B2: DGCR8 (residues 223-751), isolated, wild type (domain or fragment, human, UniProt Q8WYQ5 223-751, looked up)
chain: AIVQRDRVDEEALNFPYEDDFDNDVDALLEEGLCAPKKRRTEEKYGGDSDHPSDGETSVQPMMTKIKTVLKSRGRPPTEPLPDGWIMTFHNSGVPVYLHRESRVVTWSRPYFLGTGSIRKHDPPLSSIPCLHYKKMKDNEEREQSSDLTPSGDVSPVKPLSRSAELEFPLDEPDSMGADPGPPDEKDPLGAEAAPGALGQVKAKVEVCKDESVDLEEFRSYLEKRFDFEQVTVKKFRTWAERRQFNREMKRKQAESERPILPANQKLITLSVQDAPTKKEFVINPNGKSEVCILHEYMQRVLKVRPVYNFFECENPSEPFGASVTIDGVTYGSGTASSKKLAKNKAARATLEILIPDFVKQTSEEKPKDSEELEYFNHISIEDSRVYELTSKAGLLSPYQILHECLKRNHGMGDTSIKFEVVPGKNQKSEYVMACGKHTVRGWCKNKRVGKQLASQKILQLLHPHVKNWGSLLRMYGRESSKMVKQETSDKSVIELQQYAKKNKPNLHILSKLQEEMKRLAEEREETRK
notes: DGCR8, human, residues 223-751 (HBR, two dsRBDs, C-terminal tail); also called DGCR8^Heme; DGCR8^Apo; source: E. coli BL21 (DE3) Rosetta, pET21, purified (Ni-NTA, cation exchange, size exclusion); 5 uM hemin Cl in the media for heme-saturated protein
B3: DGCR8 (residues 223-751) C352S, isolated (domain or fragment, human, UniProt Q8WYQ5 223-751, looked up)
chain: B2 chain with C130S
notes: also called DGCR8^C352S; source: E. coli BL21 (DE3) Rosetta, pET21, purified (Ni-NTA, cation exchange, size exclusion)
B4: DGCR8 (residues 223-751), wild type, co-expressed with Drosha (domain or fragment, human, UniProt Q8WYQ5 223-751, looked up)
chain: B2 chain
notes: DGCR8, human, residues 223-751; Two copies per Drosha in the complex (heterotrimer); Heme-saturated in MP^Heme, heme-deficient in MP^Apo; also called DGCR8^Heme; DGCR8^Apo; source: MP^Apo separated from MP^Heme by repeated ion exchange
B5: DGCR8 (residues 223-751) C352S, co-expressed with Drosha (domain or fragment, human, UniProt Q8WYQ5 223-751, looked up)
chain: B2 chain with C130S
notes: also called DGCR8^C352S; the DGCR8 chain of MP^C352S

Experiments:
[1] = molecular target: T1, Drosha (residues 353-1372); assay: SEC-MALS; purified co-expressed Drosha/DGCR8 complex; Superdex 200 Increase 10/300; 20 mM Tris pH 8.0, 750 mM NaCl, 1 mM TCEP, 10% glycerol; details: both partners purified
[2] = molecular target: the molecule itself; assay: AUC; sedimentation velocity of isolated DGCR8; 0.1-1 mg/mL; 20 mM Tris pH 8.0, 500 mM NaCl, 1 mM TCEP; 142,000 x g, about 16 h; wild-type sample heme-saturated
[3] = molecular target: the molecule itself; assay: SEC-MALS; isolated DGCR8; Superdex 200 Increase 10/300; 20 mM Tris pH 8.0, 750 mM NaCl, 1 mM TCEP, 10% glycerol; wild-type sample heme-deficient (Apo); heme-saturated samples inconclusive and not reported
[4] = molecular target: the molecule itself; assay: AUC; sedimentation velocity of purified co-expressed Drosha/DGCR8 complex; 0.1-1 mg/mL; 20 mM Tris pH 8.0, 500 mM NaCl, 1 mM TCEP; 72,400 x g, about 16 h
[5] = molecular target: the molecule itself; assay: SEC-MALS; purified co-expressed Drosha/DGCR8 complex; Superdex 200 Increase 10/300; 20 mM Tris pH 8.0, 750 mM NaCl, 1 mM TCEP, 10% glycerol

| Binder | stoichiometry N [2] | stoichiometry N [3] | stoichiometry N [4] | other results |
| --- | --- | --- | --- | --- |
| B1 | – | – | – | stoichiometry N [1]: 1 |
| B2 | 2 | 2 | – | – |
| B3 | 2 | 2 | – | – |
| B4 | – | – | 2 | – |
| B5 | – | – | 2 | stoichiometry N [5]: 2 |
